Assay [1] deals with T1, 重组人SIRPα带his标签的蛋白 (human, UniProt P78324 31-373).
T1 construct: extracellular domain; also called 人SIRPα-his抗原; SRPA-ECD-His; not shown: C-terminal His tag from vector pCMV-C-His
The assay can be described thus: SPR (Biacore T200), human SIRPα-his as analyte.

Assay [2] concerns the target T1, 重组人SIRPα带his标签的蛋白. The assay can be described thus: SPR (Biacore T200), antibody captured on anti-mouse IgG CM5 chip, human SIRPα-his as analyte. (In general: In SPR one partner is held on a chip, and binding of the other changes the refractive index at the surface.)
Assay [3] has as its target T1, 重组人SIRPα带his标签的蛋白. Put plainly: SPR (Biacore T200), ratio of KD against Benchmark.
Assay [4] concerns the target T2, 人SIRPβ-ECD-His抗原 (human, UniProt O00241 30-371).
T2 construct: It ends in a His tag; also called SIRPβ抗原
Put plainly: ELISA summary (Table 3, methods of Example 2). (In general: ELISA stands for enzyme-linked immunosorbent assay.)

Usually Kd stands for the equilibrium constant for the complex coming apart. The low end stands for a tighter complex, the high end for a looser complex.

T1 sequence (P78324 31-373): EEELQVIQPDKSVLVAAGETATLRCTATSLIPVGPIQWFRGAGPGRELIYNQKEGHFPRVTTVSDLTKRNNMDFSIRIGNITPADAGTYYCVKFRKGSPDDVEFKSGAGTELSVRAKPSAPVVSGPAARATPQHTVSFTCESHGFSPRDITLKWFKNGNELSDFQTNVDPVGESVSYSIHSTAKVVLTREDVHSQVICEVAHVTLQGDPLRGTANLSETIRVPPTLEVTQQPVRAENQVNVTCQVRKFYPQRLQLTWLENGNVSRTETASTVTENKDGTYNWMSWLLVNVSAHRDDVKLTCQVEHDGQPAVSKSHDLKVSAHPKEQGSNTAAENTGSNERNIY
T2 sequence (O00241 other isoform, or with tags, fused parts or gaps): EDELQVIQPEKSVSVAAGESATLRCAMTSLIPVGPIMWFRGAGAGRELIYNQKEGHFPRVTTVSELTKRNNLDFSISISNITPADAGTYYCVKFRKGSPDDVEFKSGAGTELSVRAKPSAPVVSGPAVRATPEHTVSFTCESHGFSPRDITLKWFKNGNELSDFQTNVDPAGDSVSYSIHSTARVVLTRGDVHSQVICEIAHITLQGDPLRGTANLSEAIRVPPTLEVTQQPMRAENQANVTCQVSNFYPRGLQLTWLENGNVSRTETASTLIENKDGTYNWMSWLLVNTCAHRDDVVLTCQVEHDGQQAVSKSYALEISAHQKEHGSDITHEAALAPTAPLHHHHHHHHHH

B1: Benchmark (KWAR23抗体) (antibody, human IgG4 S228P, kappa, V domains shown)
VH: EVQLQQSGAELVKPGASVKLSCTASGFNIKDYYIHWVQQRTEQGLEWIGRIDPEDGETKYAPKFQDKATITADTSSNTAYLHLSSLTSEDTAVYYCARWGAYWGQGTLVTVSA
VL: QIVLTQSPAIMSASPGEKVTLTCSASSSVSSSYLYWYQQKPGSSPKLWIYSTSNLASGVPARFSGSGSGTSYSLTISSMEAEDAASYFCHQWSSYPRTFGAGTKLELKR
notes: Made in-house; full heavy and light chains are printed; The printed constant regions look human, while the ELISA and Biacore protocols describe anti-mouse capture and detection reagents; also called BM; 参照抗体
In assay [1], B1 displayed a Kd of 2.94 nM. This counts as single-digit nanomolar.

B2: 抗人SIRPα单克隆抗体 A2D9D1B1 (antibody, mouse IgG1, kappa, V domains shown)
VH: QVQLKESGPGLVAPSQSLSITCTVSGFSLSSYAIHWVRQPPGKGLEWLGVIWTGGSTIYNSALMSRLNISKDNSKSQVFLKMNSLQTDDTAMYYCARGNYLRYWGQGTLVTVSA
VL: NIVLTQSPASLAVSLGQRATISCRASESVDSYGYSYMHWNQQKPGQPPKLLIYLASDLESGVPARFSGSGSRTDFTLTIDPVEADDAATYYCQQNNDDPWTFGGGTKLEIKR
notes: also called 鼠抗A2D9D1B1; A2D9D1B1单克隆抗体
B2: in assay [2], the Kd is 1.25 nM. The “fold stronger affinity than Benchmark” value in assay [3] is roughly 2.4 fold. For the same molecule, the binding result in assay [4] is “binds”.

Source of the values: CN111995682A (BIOSION BIO TECH NANJING CO LTD, dated 2020).
